The record followed here is patent publication US20210253716A1.

Assay [1] has as its target mouse ACVR1 extracellular domain expressed with a C-terminal myc-myc-hexahistidine tag (mouse). The experiment in a line: SPR (Biacore), mAb captured, 25 C. A general note: Surface plasmon resonance follows binding to a sensor surface in real time, without labels.
Assay [2] has the same target. The experiment in a line: SPR (Biacore), mAb captured, 37 C.
Assay [3] has as its target human ACVR1 extracellular domain expressed with a C-terminal mouse IgG2a Fc tag (human). The experiment in a line: SPR (Biacore), mAb captured, 25 C.
For assay [4] the target is unchanged. Kind of assay: SPR (Biacore), mAb captured, 37 C.

Sequence of human ACVR1 extracellular domain expressed with a C-terminal mouse IgG2a Fc tag (human) (chain, as listed by the source limits assumed): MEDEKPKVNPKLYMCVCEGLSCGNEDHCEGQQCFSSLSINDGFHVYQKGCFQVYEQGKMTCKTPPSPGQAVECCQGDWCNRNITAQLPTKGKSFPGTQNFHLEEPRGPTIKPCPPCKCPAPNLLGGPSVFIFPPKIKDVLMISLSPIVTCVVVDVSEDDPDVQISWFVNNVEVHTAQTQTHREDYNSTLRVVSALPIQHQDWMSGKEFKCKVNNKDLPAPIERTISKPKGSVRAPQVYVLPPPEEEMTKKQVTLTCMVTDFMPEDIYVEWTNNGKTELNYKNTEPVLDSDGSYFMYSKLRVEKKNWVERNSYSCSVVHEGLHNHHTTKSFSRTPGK
Sequence of mouse ACVR1 extracellular domain expressed with a C-terminal myc-myc-hexahistidine tag (mouse) (chain, as listed by the source limits assumed): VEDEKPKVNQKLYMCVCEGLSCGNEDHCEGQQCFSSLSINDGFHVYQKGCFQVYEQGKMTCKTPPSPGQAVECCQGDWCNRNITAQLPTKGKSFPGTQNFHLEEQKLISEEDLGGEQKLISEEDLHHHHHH

B1: mAb29266 (antibody, human IgG4 S228P, kappa, V domains shown)
VH: QVQLVESGGGVVQPGRSLRLSCEVSGFTFSNYGMHWVRQAPGKGLEWVAVVSYDGSNKYYTDSVKGRFTISRDNSKNTLSLQMNSLRAEDTAVYYCAKDRGITGTSGGVFDIWGQGTMVTVSS
VL: AIRMTQSPSSFSATTGDRVTITCRASQGISSHLAWYQQKPGKAPKFLIYVASTLQSGVPSRFSGSGSGTDFTLTISSLQSEDFATYYCQQYYSYPPTFGQGTKVEIKR
B1: the 900 nM or 100 nM Ag Bound (RU) in assay [1] and in assay [2] was 5 RU each time.

B2: mAb29261 (antibody, human IgG4 S228P, kappa, V domains shown)
VH: EVQLVESGGNLVQPGGSLRLSCAASGFTFSNYAMSWVRQAPGKGLEWVSGITGNGINTYYSVSVKGRFTISRDNSKNTVFLQMNSLRAEDTAIYYCVKERGHSWFGDWFDPWGQGTLVTVSS
VL: DIQMTQSPSSLSASVGDRVTITCRASQGIRNDLGWYQQKPGKAPKRLIYAASSLQSGVPSRFSGSGSGTEFTLTISSLQPEDFATYYCLQHNSYPWTFGQGTKVEIKR
As for B2, the 100 nM Ag Bound (RU) in assay [3] is 0 RU; in assay [4], 11 RU.
